# How the values were obtained:
# [1] = molecular target: endogenous human Notch1 on 293 FlpIn (TREx) parental, LS-1034 and BxPC3 cells (human) (UniProt P46531); assay: FACS, LS-1034 and BxPC3 cells
# [2] = molecular target: human full-length Notch1 with C-terminal FLAG tag, stably expressed on 293 FlpIn (TREx) cells (human) (UniProt P46531); assay: FACS, 293 FlpIn (TREx) cells expressing Notch1
substance,measurement,setting,value
IgG isotype control antibody,MFI,[1],9
same,MFI,[2],9

# From patent US20110286916A1
